According to US20220298214A1:

Target: GLP-1 receptor (UniProt P43220)
Test: cell-based or functional assay

Sequence of GLP-1 receptor (P43220 24-463 limits assumed): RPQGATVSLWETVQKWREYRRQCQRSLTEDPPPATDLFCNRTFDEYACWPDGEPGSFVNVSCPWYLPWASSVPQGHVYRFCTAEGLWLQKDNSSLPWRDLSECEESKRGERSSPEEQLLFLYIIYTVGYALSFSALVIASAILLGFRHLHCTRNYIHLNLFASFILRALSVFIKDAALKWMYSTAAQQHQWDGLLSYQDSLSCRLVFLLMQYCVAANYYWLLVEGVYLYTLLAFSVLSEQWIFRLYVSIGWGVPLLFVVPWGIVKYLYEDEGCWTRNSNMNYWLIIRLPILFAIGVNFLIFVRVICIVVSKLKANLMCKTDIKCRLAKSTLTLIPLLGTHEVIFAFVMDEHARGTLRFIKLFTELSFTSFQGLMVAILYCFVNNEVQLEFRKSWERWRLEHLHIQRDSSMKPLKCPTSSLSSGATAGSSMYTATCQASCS

Dulaglutide (Fc fusion)
EC50 value (pM), luciferase reporter gene (CRE-Luc) in HEK293-GLP1R-CRE-Luc cells: 41.2 pM
